Assay results from publication doi:10.1101/2021.08.08.455546.

Molecular target: Human GRLBD-F602S (520-778), glucocorticoid receptor ligand binding domain (human) (UniProt P04150)
Sequence of UniProt P04150 (P04150 520-777 F602S): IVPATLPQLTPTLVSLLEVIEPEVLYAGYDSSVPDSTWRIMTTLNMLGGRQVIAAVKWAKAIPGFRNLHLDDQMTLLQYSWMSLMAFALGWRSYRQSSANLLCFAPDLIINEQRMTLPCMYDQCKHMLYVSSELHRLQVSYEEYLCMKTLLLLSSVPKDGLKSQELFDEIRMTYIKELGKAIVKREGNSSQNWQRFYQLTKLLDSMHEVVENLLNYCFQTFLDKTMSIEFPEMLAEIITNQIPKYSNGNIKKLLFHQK

- relaxation energy of the GRLBD chain with hHsp90 in absence of ATP: 42 KBT
Substance: Human Hsp90β (from UniProt P08238 1-724) (natural protein)
